Test system: Escherichia coli TOP10
Assay: shrunken log2 fold change of peptide-encoding DNA abundance (4.5 h post-induction vs induction); higher = less antimicrobial activity (less host growth inhibition)
Conditions: time post-induction: 4.5 h; library: site-saturation at positions 5, 18, 19, 20
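Also: peptides expressed intracellularly from a pBAD plasmid library in pooled LB shake-flask culture, induced with 0.3% L-arabinose, DNA abundance read by NGS, three biological replicates, DESeq2 with apeglm shrinkage.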

Row | Sequence | shrunken log2 fold change
1 | RRIRPRPPRLPRPRPRPHWEPRP | -0.146
2 | RRIRPRPPRLPRPRPRPHWLPRP | -0.0232
3 | RRIRPRPPRLPRPRPRPHYDPRP | -0.459
4 | RRIRPRPPRLPRPRPRPHYEPRP | -0.206
5 | RRIRPRPPRLPRPRPRPIAHPRP | 0.125
6 | RRIRPRPPRLPRPRPRPIAMPRP | 0.0793
7 | RRIRPRPPRLPRPRPRPIDAPRP | 0.159
8 | RRIRPRPPRLPRPRPRPIDDPRP | 0.00554
9 | RRIRPRPPRLPRPRPRPIEAPRP | 0.0713
10 | RRIRPRPPRLPRPRPRPIGQPRP | 0.121
11 | RRIRPRPPRLPRPRPRPIGWPRP | 0.376
12 | RRIRPRPPRLPRPRPRPIHAPRP | -0.0974
13 | RRIRPRPPRLPRPRPRPIIKPRP | -0.417
14 | RRIRPRPPRLPRPRPRPIIPPRP | -0.339
15 | RRIRPRPPRLPRPRPRPIKNPRP | -0.219
16 | RRIRPRPPRLPRPRPRPIKRPRP | -0.125
17 | RRIRPRPPRLPRPRPRPINVPRP | -0.366
18 | RRIRPRPPRLPRPRPRPIPAPRP | 0.342
19 | RRIRPRPPRLPRPRPRPITKPRP | -0.0256
20 | RRIRPRPPRLPRPRPRPIVNPRP | -0.166
21 | RRIRPRPPRLPRPRPRPIWKPRP | 0.0296
22 | RRIRPRPPRLPRPRPRPIWRPRP | 0.583

Row | Sequence | shrunken log2 fold change
23 | RRIRPRPPRLPRPRPRPIWVPRP | 0.0645
24 | RRIRPRPPRLPRPRPRPKATPRP | 0.463
25 | RRIRPRPPRLPRPRPRPKCYPRP | -0.193
26 | RRIRPRPPRLPRPRPRPKELPRP | 0.0936
27 | RRIRPRPPRLPRPRPRPKFWPRP | 0.414
28 | RRIRPRPPRLPRPRPRPKGIPRP | -0.0606
29 | RRIRPRPPRLPRPRPRPKGRPRP | -0.086
30 | RRIRPRPPRLPRPRPRPKHCPRP | -0.0919
31 | RRIRPRPPRLPRPRPRPKKPPRP | 0.0432
32 | RRIRPRPPRLPRPRPRPKLDPRP | 0.0519
33 | RRIRPRPPRLPRPRPRPKMVPRP | 0.0319
34 | RRIRPRPPRLPRPRPRPKNKPRP | -0.187
35 | RRIRPRPPRLPRPRPRPKPEPRP | 0.311
36 | RRIRPRPPRLPRPRPRPKPPPRP | 0.538
37 | RRIRPRPPRLPRPRPRPKREPRP | 0.1
38 | RRIRPRPPRLPRPRPRPKRMPRP | 0.139
39 | RRIRPRPPRLPRPRPRPKRWPRP | 0.441
40 | RRIRPRPPRLPRPRPRPKTIPRP | -0.0767
41 | RRIRPRPPRLPRPRPRPKVEPRP | 0.00158
42 | RRIRPRPPRLPRPRPRPKWWPRP | 0.235
43 | RRIRPRPPRLPRPRPRPKYCPRP | -0.91
44 | RRIRPRPPRLPRPRPRPKYKPRP | -0.39

Row | Sequence | shrunken log2 fold change
45 | RRIRPRPPRLPRPRPRPLAMPRP | 0.193
46 | RRIRPRPPRLPRPRPRPLDDPRP | 0.0437
47 | RRIRPRPPRLPRPRPRPLDEPRP | 0.102
48 | RRIRPRPPRLPRPRPRPLDHPRP | -0.114
49 | RRIRPRPPRLPRPRPRPLEFPRP | -0.241
50 | RRIRPRPPRLPRPRPRPLETPRP | 0.151
51 | RRIRPRPPRLPRPRPRPLFFPRP | 0.0106
52 | RRIRPRPPRLPRPRPRPLFHPRP | -0.131
53 | RRIRPRPPRLPRPRPRPLFVPRP | -0.176
54 | RRIRPRPPRLPRPRPRPLGYPRP | -0.0805
55 | RRIRPRPPRLPRPRPRPLHSPRP | -0.207
56 | RRIRPRPPRLPRPRPRPLHTPRP | -0.128
57 | RRIRPRPPRLPRPRPRPLKMPRP | -0.124
58 | RRIRPRPPRLPRPRPRPLLRPRP | 1.73
59 | RRIRPRPPRLPRPRPRPLMAPRP | 0.213
60 | RRIRPRPPRLPRPRPRPLMLPRP | -0.21
61 | RRIRPRPPRLPRPRPRPLMYPRP | -0.318
62 | RRIRPRPPRLPRPRPRPLQRPRP | 0.395
63 | RRIRPRPPRLPRPRPRPLRAPRP | 0.86
64 | RRIRPRPPRLPRPRPRPLRPPRP | 0.726
65 | RRIRPRPPRLPRPRPRPLSQPRP | -0.185
66 | RRIRPRPPRLPRPRPRPLTIPRP | -0.275

Row | Sequence | shrunken log2 fold change
67 | RRIRPRPPRLPRPRPRPLTPPRP | 0.222
68 | RRIRPRPPRLPRPRPRPLVCPRP | 0.272
69 | RRIRPRPPRLPRPRPRPLVYPRP | -0.0742
70 | RRIRPRPPRLPRPRPRPLWNPRP | -0.0917
71 | RRIRPRPPRLPRPRPRPLWTPRP | 0.0798
72 | RRIRPRPPRLPRPRPRPLYEPRP | -0.303
73 | RRIRPRPPRLPRPRPRPLYYPRP | -0.985
74 | RRIRPRPPRLPRPRPRPMAEPRP | 0.106
75 | RRIRPRPPRLPRPRPRPMAPPRP | -0.0483
76 | RRIRPRPPRLPRPRPRPMCPPRP | -0.267
77 | RRIRPRPPRLPRPRPRPMDLPRP | -0.00399
78 | RRIRPRPPRLPRPRPRPMDNPRP | -0.683
79 | RRIRPRPPRLPRPRPRPMDQPRP | -0.113
80 | RRIRPRPPRLPRPRPRPMEQPRP | 0.0098
81 | RRIRPRPPRLPRPRPRPMGSPRP | -0.0938
82 | RRIRPRPPRLPRPRPRPMHRPRP | 0.0978
83 | RRIRPRPPRLPRPRPRPMITPRP | -0.407
84 | RRIRPRPPRLPRPRPRPMLHPRP | -0.0917
85 | RRIRPRPPRLPRPRPRPMNQPRP | 0.00354
86 | RRIRPRPPRLPRPRPRPMQNPRP | 0.201
87 | RRIRPRPPRLPRPRPRPMRQPRP | 0.398
88 | RRIRPRPPRLPRPRPRPMVNPRP | -0.0636

Row | Sequence | shrunken log2 fold change
89 | RRIRPRPPRLPRPRPRPMVRPRP | -0.0349
90 | RRIRPRPPRLPRPRPRPNDGPRP | -0.482
91 | RRIRPRPPRLPRPRPRPNDRPRP | -0.0965
92 | RRIRPRPPRLPRPRPRPNFIPRP | -0.215
93 | RRIRPRPPRLPRPRPRPNFSPRP | 1.08
94 | RRIRPRPPRLPRPRPRPNGQPRP | 0.097
95 | RRIRPRPPRLPRPRPRPNHIPRP | -0.856
96 | RRIRPRPPRLPRPRPRPNHQPRP | -0.251
97 | RRIRPRPPRLPRPRPRPNLPPRP | -0.142
98 | RRIRPRPPRLPRPRPRPNNFPRP | -0.364
99 | RRIRPRPPRLPRPRPRPNQAPRP | -0.0302
100 | RRIRPRPPRLPRPRPRPNQSPRP | -0.247
101 | RRIRPRPPRLPRPRPRPNQYPRP | -0.509
102 | RRIRPRPPRLPRPRPRPNSDPRP | -0.39
103 | RRIRPRPPRLPRPRPRPNSHPRP | -0.521
104 | RRIRPRPPRLPRPRPRPNVEPRP | 0.0775
105 | RRIRPRPPRLPRPRPRPNVKPRP | -0.475
106 | RRIRPRPPRLPRPRPRPNWKPRP | -0.101
107 | RRIRPRPPRLPRPRPRPPCVPRP | 0.128
108 | RRIRPRPPRLPRPRPRPPDGPRP | 0.067
109 | RRIRPRPPRLPRPRPRPPEHPRP | 0.0484
